Reference: PMC8534003 (Cancers, 2021)
Where no end group is shown, it is not given here. The star is where a group is joined. Biotin = O=C1N[C@H]2[C@H](CS[C@H]2CCCCC(=O)*)N1

Target: T1, human recombinant FGF-2 (human, UniProt P09038 143-288)
T1 construct: basic fibroblast growth factor (FGF-2), human recombinant; also called basic fibroblast growth factor; source: bought: R&D Systems
Assay: grating-coupled interferometry; Creoptix WAVEdelta, 4PCP-STA chip; biotinylated CXCL9(74-103) captured on streptavidin; FGF-2 as analyte 4.53 nM-1.10 µM in duplicate; 25 °C; PBS with 30 mM NaCl, 15 mM L-arginine, 0.015% Tween 20, 0.05 mg/mL BSA, pH 7.4; 1:1 binding model with bulk correction
Settings: both partners purified

T1 sequence (P09038 143-288): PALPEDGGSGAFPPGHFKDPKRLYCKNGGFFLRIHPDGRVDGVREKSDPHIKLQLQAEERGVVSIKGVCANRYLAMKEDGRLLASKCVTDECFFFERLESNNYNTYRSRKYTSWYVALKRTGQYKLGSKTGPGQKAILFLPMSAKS

B1: biotinylated CXCL9(74-103) (peptide)
peptide: Biotin-KKKQKNGKKHQKKKVLKVRKSQRSRQKKTT
notes: Site-specifically biotinylated at the NH2-terminus with biotin-p-nitrophenyl ester; source: synthetic peptide (Fmoc solid-phase synthesis)
**Q.** B1 was tested. Which Kd did it give?
**A.** 100 nM
